Assay results taken from patent US20140322196A1.

How the values were obtained:
[1] = biological target: Hemagglutinin (HA) of Avian 29/05/06 H5N1 (inactivated vaccine) (Influenza A virus Avian 29/05/06 H5N1); experiment: cell-based or functional assay
[2] = biological target: Hemagglutinin (HA) of Influenza SW [change] 1089/09 swine pandemic H1N1 (inactivated subunits, vaccine) (Influenza A virus SW [change] swine pandemic H1N1); experiment: cell-based or functional assay

Substance	HI titre [1] [fM]	HI titre [2] [fM]
… (SEQ ID NO: 1), bLf C-lobe peptide 418-429	18	5.8
… (SEQ ID NO: 2), bLf C-lobe peptide 506-522	70	46
Lactoferrin from bovine milk (bLf) (from UniProt P24627 20-708)	2900	46.5
